Results: PMC6310132 (The Biochemical journal, 2016)

Target: N-ethylmaleimide-sensitive factor (NSF), pRSET-A fusion protein (mouse, UniProt P46460 1-744)
Assay: SPR

Sequence of N-ethylmaleimide-sensitive factor (NSF), pRSET-A fusion protein (P46460 whole entry, the tested form may be a part): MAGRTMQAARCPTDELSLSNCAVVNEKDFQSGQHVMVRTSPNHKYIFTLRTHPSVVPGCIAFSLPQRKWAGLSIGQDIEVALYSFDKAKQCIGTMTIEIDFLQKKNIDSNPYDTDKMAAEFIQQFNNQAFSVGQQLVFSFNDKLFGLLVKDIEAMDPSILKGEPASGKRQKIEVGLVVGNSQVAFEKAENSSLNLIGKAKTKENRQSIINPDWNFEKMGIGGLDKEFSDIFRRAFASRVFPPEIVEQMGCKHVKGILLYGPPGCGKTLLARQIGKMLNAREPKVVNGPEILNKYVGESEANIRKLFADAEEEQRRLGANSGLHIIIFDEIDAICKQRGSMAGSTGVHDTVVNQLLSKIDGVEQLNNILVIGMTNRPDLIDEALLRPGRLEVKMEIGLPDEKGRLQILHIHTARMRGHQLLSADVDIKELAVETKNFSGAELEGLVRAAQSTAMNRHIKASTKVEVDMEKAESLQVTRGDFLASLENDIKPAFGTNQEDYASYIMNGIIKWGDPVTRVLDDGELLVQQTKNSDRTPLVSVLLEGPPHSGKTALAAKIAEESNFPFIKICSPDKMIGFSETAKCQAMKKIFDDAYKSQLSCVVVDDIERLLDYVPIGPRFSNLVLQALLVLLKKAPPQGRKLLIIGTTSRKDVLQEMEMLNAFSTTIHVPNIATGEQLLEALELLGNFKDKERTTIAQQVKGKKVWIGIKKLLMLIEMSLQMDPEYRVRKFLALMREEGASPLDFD

Kd: 12.1 nM
koff: 0.00274 s⁻¹
kon: 227000 M⁻¹ s⁻¹
B1: rat organ of Corti dopamine D1A carboxy terminus, pRSET-A fusion protein (domain or fragment, UniProt P18901 338-425, looked up)
chain: QKAFSTLLGCYRLCPTTNNAIETVSINNNGAVVFSSHHEPRGSISKDCNLVYLIPHAVGSSEDLKKEEAGGIAKPLEKLSPALSVILD
